Results on 62 sequences are retold here after the supplement of paper PMC9112550, “Optimization of the antimicrobial peptide Bac7 by deep mutational scanning” (BMC Biology, 2022).
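Note: peptides expressed intracellularly from a pBAD plasmid library in pooled LB shake-flask culture, induced with 0.3% L-arabinose, DNA abundance read by NGS, three biological replicates, DESeq2 with apeglm shrinkage.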

In the series the test system is Escherichia coli TOP10. Description: shrunken log2 fold change of peptide-encoding DNA abundance (4.5 h post-induction vs induction); higher = less antimicrobial activity (less host growth inhibition). The settings on record: time post-induction: 4.5 h; library: site-saturation at positions 5, 18, 19, 20.
Regarding RRIRKRPPRLPRPRPRPYVPPRP, the “shrunken log2 fold change” value is -0.423. With RRIRERPPRLPRPRPRPRLQPRP the figure was 0.0143. With RRIRSRPPRLPRPRPRPNLRPRP the figure was 0.0182; with RRIRGRPPRLPRPRPRPCDRPRP, 0.00287; with RRIRVRPPRLPRPRPRPELRPRP, 0.123. As for RRIRWRPPRLPRPRPRPWIYPRP, the “shrunken log2 fold change” value worked out at 0.0862.

With RRIRFRPPRLPRPRPRPVVVPRP, the “shrunken log2 fold change” value was -0.0228. With RRIRIRPPRLPRPRPRPKGCPRP, the “shrunken log2 fold change” value is -0.00865. With RRIRRRPPRLPRPRPRPHPVPRP the figure was 0.175; with RRIRWRPPRLPRPRPRPTWTPRP, 0.303; with RRIRERPPRLPRPRPRPWLWPRP, 0.239.

For the sequence RRIRSRPPRLPRPRPRPIMFPRP, the “shrunken log2 fold change” value was -0.304. In the case of RRIRRRPPRLPRPRPRPSSWPRP it was -0.162; in that of RRIRNRPPRLPRPRPRPDPYPRP, -0.319. In the case of RRIRTRPPRLPRPRPRPVMPPRP it was 0.372. Turning to RRIRDRPPRLPRPRPRPRITPRP, the “shrunken log2 fold change” value was -0.138. In the case of RRIRNRPPRLPRPRPRPCRIPRP, the “shrunken log2 fold change” value was -0.134.

On to RRIRGRPPRLPRPRPRPFWYPRP, for which the “shrunken log2 fold change” value was -0.0145.

As for RRIRSRPPRLPRPRPRPPFTPRP, the “shrunken log2 fold change” value is -0.00795. With RRIRYRPPRLPRPRPRPIWTPRP, the “shrunken log2 fold change” value was determined as 0.066.

As to RRIRYRPPRLPRPRPRPCEEPRP, the “shrunken log2 fold change” value was -0.156. In the case of RRIRERPPRLPRPRPRPWHLPRP it was -0.349; in that of RRIRCRPPRLPRPRPRPWNNPRP, -0.107; in that of RRIRCRPPRLPRPRPRPFRAPRP, -0.277. With RRIRERPPRLPRPRPRPLWYPRP, the “shrunken log2 fold change” value was -0.287. In the case of RRIRCRPPRLPRPRPRPKSPPRP, the “shrunken log2 fold change” value was -0.1. In the case of RRIRQRPPRLPRPRPRPRTVPRP it was 0.349; in that of RRIRKRPPRLPRPRPRPRMWPRP, 0.377.

As for RRIRKRPPRLPRPRPRPPGKPRP, the “shrunken log2 fold change” value came out at 0.756. Consider RRIRTRPPRLPRPRPRPMKHPRP, for which the “shrunken log2 fold change” value is -0.00108. As for RRIRKRPPRLPRPRPRPTHYPRP, the “shrunken log2 fold change” value was -0.134. For the sequence RRIRFRPPRLPRPRPRPVLYPRP, the “shrunken log2 fold change” value is -0.457. In the case of RRIRQRPPRLPRPRPRPPPDPRP it was 0.701; in that of RRIRARPPRLPRPRPRPFQMPRP, -0.0651; in that of RRIRVRPPRLPRPRPRPQSRPRP, 0.0616. On to RRIRWRPPRLPRPRPRPCNFPRP, for which the “shrunken log2 fold change” value is -0.464. In the case of RRIRHRPPRLPRPRPRPESNPRP, the “shrunken log2 fold change” value was -0.131.

In the case of RRIRNRPPRLPRPRPRPWCYPRP, the “shrunken log2 fold change” value is -0.428. With RRIRARPPRLPRPRPRPNDRPRP the figure was -0.0519; with RRIRQRPPRLPRPRPRPCMIPRP, -0.0196; with RRIRNRPPRLPRPRPRPTLDPRP, 0.221. As for RRIRMRPPRLPRPRPRPGSKPRP, the “shrunken log2 fold change” value stood at 0.479. In the case of RRIRTRPPRLPRPRPRPNSVPRP, the “shrunken log2 fold change” value is -0.0853. Take RRIRLRPPRLPRPRPRPRHPPRP: the “shrunken log2 fold change” value is 0.163. In the case of RRIRKRPPRLPRPRPRPTVGPRP it was 0.197; in that of RRIRQRPPRLPRPRPRPIAHPRP, -0.148. In the case of RRIRCRPPRLPRPRPRPWPEPRP it was -0.15; in that of RRIRYRPPRLPRPRPRPSIFPRP, -0.654; in that of RRIRSRPPRLPRPRPRPNKQPRP, -0.221. In the case of RRIRLRPPRLPRPRPRPFFVPRP it was -0.168; in that of RRIRTRPPRLPRPRPRPSQIPRP, -0.0567.

Consider RRIRYRPPRLPRPRPRPADHPRP, for which the “shrunken log2 fold change” value is -0.0872. In the case of RRIRWRPPRLPRPRPRPQVGPRP it was 0.0734; in that of RRIRWRPPRLPRPRPRPPSIPRP, 0.357. In the case of RRIRWRPPRLPRPRPRPFSRPRP it was -0.0399. With RRIRVRPPRLPRPRPRPGNYPRP, the “shrunken log2 fold change” value is -0.162. For RRIRWRPPRLPRPRPRPQINPRP, the “shrunken log2 fold change” value was -0.348. In the case of RRIRQRPPRLPRPRPRPHDYPRP it was -0.00281; in that of RRIRVRPPRLPRPRPRPVSYPRP, -0.51; in that of RRIRIRPPRLPRPRPRPVRQPRP, -0.0328.

RRIRARPPRLPRPRPRPCTHPRP: the “shrunken log2 fold change” value is -0.182. In the case of RRIRNRPPRLPRPRPRPYWHPRP it was -0.0277.
